Assay results from patent US20140056903A1 (Regeneron, published 2014).

Tests used:
[1] = biological target: T1, human GFRα3 expressed with a C-terminal myc-myc-hexahistidine tag (human, UniProt O60609 32-374, biotinylated (sites not given) in ELISA format 2 and in the Octet cross-competition; not in SPR); experiment: Octet cross-competition; biotin-hGFRα3-mmH pre-saturated with first antibody H4H2236N3
T1 construct: also called hGFRα3-mmh; hGFRα3-mmH
Description: (§1) A cross-competition assay was conducted to assess the ability of select antibodies to compete with one another for binding to human GFRα3 using an Octet RED384 biosensor (Fortebio Inc.). The entire experiment was performed at 25° C. with the flow rate of 1000 rpm in Octet HBST buffer (0.01 M HEPES pH7.4, 0.15M NaCl, 3 mM EDTA, 0.05% v/v Surfactant P20, 0.1 mg/mL BSA). To assess whether 2 antibodies were able to compete with one another for binding to their respective epitopes on biotinylated recombinant human GFRα3 expressed with a C-terminal myc-myc-hexahistidine tag (biotin-hGFRα3-mmH; SEQ ID:370), around ˜1.2 nm of biotin-hGFRα3-mmH was first captured onto streptavidin-coated Octet sensor tips (Fortebio Inc, #18-5019) by submerging the tips for 1 minute into a 10 μg/mL solution of biotin-hGFRα3-mmH. The antigen coated sensor tips were then placed into wells containing 25 μg/mL solution of a first anti-GFRα3 monoclonal antibody for 4 minutes to saturate the biotin-hGFRα3-mmH surface. The sensor tips were then subsequently dipped into wells containing 25 μ/mL solution of a second anti-GFRα3 monoclonal antibody. The sensor tips were washed in Octet HBST buffer in between every step of the experiment. The real-time binding response was monitored during the course of the experiment and the binding response at the end of every step was recorded as shown in FIG. 9. The response of mAb-2 binding to biotin-hGFRα3-mmH pre-complexed with the first antibody was compared and competitive/non-competitive behavior of different anti-GFRα3 monoclonal antibodies was determined.

[2] = biological target: T1, human GFRα3 expressed with a C-terminal …; experiment: Octet cross-competition; biotin-hGFRα3-mmH pre-saturated with first antibody H4H2352S
Description: as §1

[3] = biological target: T2, human GFRα3 on HEK293/hGFRα3/hRET/SRE-luc cells (human, UniProt O60609 32-382); experiment: cell-based or functional assay
T2 sequence: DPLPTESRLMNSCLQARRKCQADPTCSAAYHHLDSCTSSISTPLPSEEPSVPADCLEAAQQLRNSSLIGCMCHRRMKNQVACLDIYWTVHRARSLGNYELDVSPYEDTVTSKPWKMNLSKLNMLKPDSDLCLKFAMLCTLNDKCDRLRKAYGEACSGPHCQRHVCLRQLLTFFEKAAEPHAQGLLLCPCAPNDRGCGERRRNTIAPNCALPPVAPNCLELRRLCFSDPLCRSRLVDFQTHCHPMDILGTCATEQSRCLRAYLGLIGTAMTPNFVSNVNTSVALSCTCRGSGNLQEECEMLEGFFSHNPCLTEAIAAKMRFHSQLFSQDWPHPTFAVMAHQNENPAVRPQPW

[4] = biological target: T1, human GFRα3 expressed with a C-terminal …; experiment: blocking ELISA 2, biotin-hGFRα3-mmH to coated hARTEMIN-mmH + hRET-10His
Description: The equilibrated sample solutions were then transferred to the hARTEMIN-mmH-coated plate. […] Absorbance was recorded at 450 nm on a Victor X5 plate reader (Perkin Elmer) to determine the amount of free hGFRα3-hFc in the pre-equilibrated hGFRα3-hFc-antibody solutions that was able to bind to the plate coated with hARTEMIN-mmH. IC₅₀ values, defined as the concentration of antibody required to reduce the signal from a constant concentration of hGFRα3-hFc by 50%, were calculated from the data using Prism software from GraphPad. The absorbance measured at the constant amount of 120 pM hGFRα3-hFc in the absence of anti-GFRα3 antibody is defined as 0% blocking and the absorbance with no added hGFRα3-hFc is defined as 100% blocking. The observed absorbance in the wells containing the highest antibody concentration was used to calculate the maximum blocking percent shown in the table.
In the second ELISA format, the plates, samples and data were processed similarly as for the first format except both hARTEMIN-mmH and human RET with a C-terminal 10 histidine tag (hRET-10His; R&D Systems, #1168-CR/CF) were coated for the blocking ELISA experiment. The 96-well microtiter plates were coated with a mixture of 1.2 ug/ml hARTEMIN-mmH and 6.9 ug/ml hRET-10His proteins in PBS overnight at 4° C. and then blocked with a solution of 0.5% (w/v) BSA. A constant amount of biotinylated human GFRα3 with a C-terminal myc-myc-hexahistidine tag (biotin-hGFRα3-mmH; SEQ ID:370) at 1 nM was pre-mixed with varied amounts of anti-GFRα3 antibodies, ranging from 0 to ˜100 nM in serial dilutions, followed by a 1 hour incubation at RT to allow antibody-biotin-hGFRα3-mmH binding to reach equilibrium. The equilibrated samples were then transferred to the coated plate. After 1 hour of binding, the plate was washed, then the bound biotin-hGFRα3-mmH was detected using HRP conjugated streptavidin (Pierce, #N200), and colorimetric signals were developed using TMB HRP substrates.

binding response of second antibody (nm) [1]	binding response of second antibody (nm) [2]	IC50 (SRE-luc, HEK293/hGFRα3/hRET cells, 100 pM hARTEMIN-mmH) [3]	% max blocking [4]	IC50 [4]	Binder
0 nm	2.12 nm	2.3 nM	–	–	H4H2355S (antibody, human IgG4, V domains shown, human IgG4 Fc (H4H)) VH: EVQLVESGGGLVQPGGSLRLSCAASGFTFSSYAMSWVRQVPGKGLEWVSAISGSGDNTYNAESVKGRFTISRDNSKNMLYLQMNSLRAEDTAVYYCAKTKFSSSLLFDYWGQGTLVTVSS VL: not shown
1.91 nm	0.1 nm	0.92 nM	100%	0.761 nM	H4H2352S (antibody, human IgG4, V domains shown, human IgG4 Fc (H4H); also called H4H2352S-1) VH: EVQLVQSGAEVKKPGASVKVSCKASGYTFTNYGITWVRQAPGQGLEWMGWISAYNGNTGYAQKFQGRVTMTTDTSTSTAYMELRSLRSDDTAVYYCAREDYDFWRAFDIWGQGTMVTVSS VL: EIVLTQSPGTLSLSPGERATLSCRASQSVSSTYLAWLQQKPGQAPRLLIYGASSRATGIPDRFSGSGSGTDFTLTINRLEPEDFAVYYCQQYAYSPYTFGQGTKLEIK
1.81 nm	0.15 nm	4.6 nM	100%	1.76 nM	H4H2292S (antibody, human IgG4, V domains shown, human IgG4 Fc (H4H)) VH: EVQLVESGGGVVQPGRSLRLSCAASGFTFSSYGMHWVRQAPGKGLEWVSFIWYDGSNKYYADSVKGRFTISRDNSKNTLYLQMNSLTAEDTAVYYCARRGILTGTTAFDIWGQGTMVTVSS VL: DIQMTQSPSSLSASVGDRVTITCRASQSISSYLNWYQQKPGKAPKLLIYAASSLQSGVPSRFSGSGSGTDFTLTIRSLIPEDFATYYCQQTYNTPFTFGPGTKVEIK
0.02 nm	0.13 nm	0.3 nM	95%	1.12 nM	H4H2243N2 (antibody, human IgG4, V domains shown, human IgG4 Fc (H4H)) VH: QVQLVQSGAEVKKPGASVKVSCKASGYTFTSYGIIWVRQAPGQGLEWMGWISGYNGNTNYAQNLQGRVTMTTDTSTTTAYMELRSLRSDDTAVYYCARWGIATRPYYYYGMDVWGQGTTVTVSS VL: DIQMTQSPSSLSASVGDRVTITCRASQDITNYLAWFQQKPGKAPKSLIYAASSLQSGVPSKFSGSGSGTDFTLTISSLQPEDFATYYCQQYNSYPPTFGPGTKVDIK
1.79 nm	0.05 nm	0.8 nM	99%	0.403 nM	H4H2212N (antibody, human IgG4, V domains shown, human IgG4 Fc (H4H)) VH: EVQLLESGGGLVQPGGSLRLSCAASGFTFSSYAMSWVRQGPGKGLEWVSGISGSGGSTYNADSVKGRFTISRDNSKNTLYLQMNSLRAEDTAVYYCAKDSGTYWYYFDYWGQGILVTVSS VL: not shown
-0.01 nm	2.08 nm	1 nM	97%	1.08 nM	H4H2342P (antibody, human IgG4, V domains shown, human IgG4 Fc (H4H)) VH: EVQLLESGGGLVQPGGSLRLSCAASGFTFSTYAMSWVRQAPGKGLEWVSAIRGNGVNTYYGDSMKGRFTISRDNSKDTLYLQMNSLRAEDTAVYYCAKNKWELLVFEYWGQGTLVTVSS VL: DIQMTQSPSSLSASVGDRVTITCRASQDISNYLAWYQQKPGKVPKLLIYAASTLQSGVPFRFSGSGSGTDFTLTISSLQPEDVATYYCQKYNSAPPFGPGTKVDIK
0.04 nm	2.45 nm	4.9 nM	86%	3.28 nM	H4H2357S (antibody, human IgG4, V domains shown, human IgG4 Fc (H4H)) VH: EVQLVESGGGLVQPGGSLRLSCAASTFTFSSYAMTWVRQAPGKGLEWVSSISGSGDSTYYADSVKGRFTISRDNSKNTLFLQMNSLRAEDTAVYYCAKKDGPGRYYVRYGMDVWGQGTTVTVSS VL: DIQMTQSPSSVSASVGDRVTITCRASQGISSWLAWYQQKPGKAPKLLIYTTSSLQSGVPSRFSGSGSGTDFTLTISSLQPEDFATYYCQQANSFPLTFGGGTKVDIK
